Where no end group is shown, it is not given here. The star is where a group is joined. βGlcNAc = CC(=O)N[C@@H]1[C@@H](O)[C@H](O)[C@@H](CO)O[C@H]1*
B1: SdgB (glycosyltransferase, Staphylococcus aureus USA300) (enzyme)
chain: MNYFVGNSLGVNLTGIEKAIINRLNLFKEMGRPAQCVFLSWNRYLYRNAQNYITSSDYINMYDFFQEATYLERNEPFDWLSYWTDECHYTLKHVENSHDFRIYDQERFLMYAHFQDPKYRILDYVNHFDSQRRKVKRDFYDVRGFLSCSRILVDKQQTLCEFFYNPEGDTKLEKYFSYKDGKPEVQKIIVYYANKQYFFNNETELGAFFIKQLYQHGDLFFSDRNVYTAPIFNLTPESIPVVAVLHSTHIKNIDALDSSPFKNVYKAMFENLSRYRAIIVSTEQQKLDVEKRINHTIPVVNIPVGYSETIDTPVQTLDQRSVKLISVARYSPEKQLHQQIELIKRLVSYVPKIELHMYGFGSESKKLNELIQKYGLENHVYLRGFLSNLDQEYSDAYLSLITSNMEGFSLALLESLAHGVPVISYDIKYGPNELITSDFNGYLITKNDEDALFDKVKYVIDHPEVQQRLSKGSLAKAQQYSKASLIKQWDQFVRLI
notes: SdgB, O-GlcNAc glycosyltransferase of S. aureus strain USA300, gene SAUSA300_0550, cloned into pET-21a(+); theoretical monomer mass 59.5 kDa; A selenomethionine-substituted form was used only for phasing; also called SdgB_(quaternary); source: E. coli Rosetta 2(DE3)pLysS, purified (HiTrap Chelating, HiTrap Q, Superdex 200)

Columns and labels:
[1] = target: T1, SdgB (Staphylococcus aureus, UniProt A0A0H2XGN0); assay: X-ray crystallography; conditions: donor-binding site, closed form
T1 construct: gene SAUSA300_0550; full-length, C-terminal His6 tag (pET-21a), E. coli Rosetta 2(DE3)pLysS; residues 1-496 compared

[2] = target: T1, SdgB; assay: MALDI-MS O-GlcNAcyltransferase assay; format: biochemical; conditions: 10 mM donor; acceptor DSD or DSDSD 3 mM, 5 uM enzyme, 20 mM HEPES pH 7.5, 150 mM NaCl, 1 mM MgCl2, 37 C, 2 h
[3] = target: SdgA (glycosyltransferase, Staphylococcus aureus USA300) (Staphylococcus aureus (strain USA300)); assay: AUC; sedimentation equilibrium; SdgB 1 µM, SdgA 4.5 µM; 20 mM HEPES pH 7.5, 150 mM NaCl, 1 mM MgCl2; 9000 and 15 000 rev/min; global fit to a monomer–dimer self-association model (dimer to monomers)
[4] = target: SdgA (glycosyltransferase, Staphylococcus aureus USA300) (Staphylococcus aureus (strain USA300)); assay: AUC; sedimentation velocity; SdgA at 4.5 µM; 30 000 rev/min
[5] = target: the molecule itself; assay: SEC-MALS; SdgB 0.22 mg injected; Superdex 200 Increase 10/300 GL; 20 mM Tris–HCl pH 7.5, 200 mM NaCl; 0.5 ml/min
[6] = target: the molecule itself; assay: AUC; sedimentation equilibrium; SdgB 1 µM, SdgA 4.5 µM; 20 mM HEPES pH 7.5, 150 mM NaCl, 1 mM MgCl2; 9000 and 15 000 rev/min; global fit to a monomer–dimer self-association model (dimer to monomers)
[7] = target: B1; assay: crystal structure; SdgB crystal (20 mM CaCl2, 85 mM trisodium citrate pH 5.6, 25.5% PEG 4000, 15% glycerol) soaked with 2.66 mM 9-mer SD-repeat peptide and 9.60 mM UDP-GlcNAc for 7.5 h; conditions: both partners purified
[8] = target: B1; assay: crystal structure; SdgB crystal (0.2 M MgCl2, 0.1 M Tris–HCl pH 8.5, 25% PEG 3350) quick-soaked with 6.14 mM UDP and 2.45 mM 5-mer peptide DSDSD for 30 min; conditions: both partners purified
[9] = target: T2, SdgB (glycosyltransferase, Staphylococcus aureus USA300) (Staphylococcus aureus (strain USA300), UniProt A0A0H2XGN0 1-496); assay: SPR
T2 chain: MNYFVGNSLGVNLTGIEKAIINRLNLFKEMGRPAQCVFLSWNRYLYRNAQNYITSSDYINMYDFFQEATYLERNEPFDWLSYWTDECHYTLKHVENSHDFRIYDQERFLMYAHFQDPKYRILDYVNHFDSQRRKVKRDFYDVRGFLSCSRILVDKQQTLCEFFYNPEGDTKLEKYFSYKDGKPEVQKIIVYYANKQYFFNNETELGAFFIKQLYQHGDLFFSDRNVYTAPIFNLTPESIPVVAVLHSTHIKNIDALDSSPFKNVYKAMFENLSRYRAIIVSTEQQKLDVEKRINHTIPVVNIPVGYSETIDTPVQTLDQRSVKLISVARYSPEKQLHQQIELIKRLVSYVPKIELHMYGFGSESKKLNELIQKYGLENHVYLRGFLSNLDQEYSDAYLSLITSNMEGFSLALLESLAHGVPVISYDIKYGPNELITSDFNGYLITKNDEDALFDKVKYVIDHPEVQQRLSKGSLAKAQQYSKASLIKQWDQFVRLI

[10] = target: B1; assay: SPR; SdgB immobilised on a PEG-based sensor chip (1062 RU); SdgA 0.39–25.0 µM as analyte; HBS-EP (10 mM HEPES pH 7.4, 150 mM NaCl, 0.03 mM EDTA, 0.005% Tween 20); 20°C; kinetic fit with Scrubber2; conditions: both partners purified

Molecule: CC(=O)N[C@H]1C(O)O[C@H](CO)[C@@H](O)[C@@H]1O (some centres unmarked) [GlcNAc]
- X-ray crystallography ([1]; cleaved from soaked UDP-GlcNAc, with UDP and diGlcNAcylated 9-mer): distinct electron density for UDP and GlcNAc was observed in the cleft

Molecule: CC(=O)N[C@H]1[C@@H](OP(=O)(O)OP(=O)(O)OC[C@H]2O[C@@H](n3ccc(=O)[nH]c3=O)[C@H](O)[C@@H]2O)O[C@H](CO)[C@@H](O)[C@@H]1O [UDP-GlcNAc]
- MALDI-MS O-GlcNAcyltransferase assay [2]: converted into mono-GlcNAcylated forms by SdgB but not by SdgA

Molecule: SdgA (glycosyltransferase, Staphylococcus aureus USA300) (from UniProt A0A0H2XI10 1-490) (enzyme)
- Kd [3]: 14100 nM
- stoichiometry N [4]: 2

Molecule: O=c1ccn([C@@H]2O[C@H](COP(=O)(O)OP(=O)(O)O)[C@@H](O)[C@H]2O)c(=O)[nH]1 [UDP]
- X-ray crystallography ([1]; complex with cleaved GlcNAc and diGlcNAcylated 9-mer, 2.5 A, also seen with DSDSD in a second structure (7VFM)): distinct electron density for UDP and GlcNAc was observed in the cleft

Molecule: B1
- stoichiometry N [5]: 2
- Kd [6]: 926 nM

B2: diGlcNAcylated 9-mer SD-repeat peptide (DSDSDSDSD) (peptide)
peptide: DSDS(βGlcNAc)DSDS(βGlcNAc)D
notes: serine–aspartate repeat as in the SDR domains of staphylococcal SDR proteins (ClfA and others); no one parent protein is named; Asp1 not modelled in the structure; The peptide was added unmodified; also called GlcNAcylated SD-repeat peptide (9-mer); O-GlcNAcylated SDR peptide (9-mer); source: 9-mer peptide soaked into the SdgB crystal with UDP-GlcNAc and glycosylated in the crystal
- binding result [7]: binds

B3: 5-mer SD-repeat peptide Asp-Ser-Asp-Ser-Asp (DSDSD) (peptide)
peptide: DSDSD
notes: serine–aspartate repeat as in the SDR domains of staphylococcal SDR proteins (ClfA and others); no one parent protein is named; only SDSD was modelled in the structure; also called 5-mer SDR peptide; source: synthetic peptide
- binding result [8]: binds

B4: SdgA (glycosyltransferase, Staphylococcus aureus USA300) (enzyme)
chain: MNYILGTILESKITGVEKAQINRLKLFKQHGISSKCVYVKWNPYSYTYAKQHQIENDVFTMYDYFQKAINYKKTKQVNWIQYWEKSCRYTLKFVENSNDVRIYDEEQFVMYAHFLDKQYHQLNYVNYFDHKRRKVKRELYDGRGFLSCSRILGEGQRIVLENYYTPNGEIVIQKYFDDIKGKNTLTKVILNEDQHQQFFDTEDELVQYFLHQLCKNNDQIILDRPHELGNVIAGLNQSIPVIVVLHSTHLSGAGNGIKSFYKTVFNNLTRYKAIVVSTEKQCQDISQYIENKIPVINIPVGYVANLKYQFDINQKEKNHIISIARLVENKQIKHQIEVIKQLVTKHPNIQLNIYGHGNGLSEYRQLVEDYHLSEHVKFHGFKTHINEEIAKAELMLSTSKMEGFGLAILESLSVGTPVISYDVDYGPSELIQDGFNGYLVPQGDINQMVEKVDQLLNNTQKLQQFSINSIESAQQYNATTISTKWQNILN
notes: SdgA, glycosyltransferase of S. aureus strain USA300, gene SAUSA300_0549, cloned into pET-21a(+); theoretical monomer mass 60.4 kDa; source: E. coli Rosetta 2(DE3)pLysS, purified (HiTrap Chelating, HiTrap Q, Superdex 200)
- koff [9]: 0.000496 s⁻¹
- Kd [10]: 393 nM
